Data on 18 sequences can be found in the supplement of paper PMC9170038.

The subject of data set [1] is MS2 coat protein. Briefly: apparent KD of MS2 coat protein; designed switch direction (-1 OFF switch, 1 ON switch): -1; higher = weaker reporter binding. The note with it: Eterna round: R98. The method, then: (§1)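 RNA-MaP: designed FMN/MS2 RNA switches (84 nt design region) are transcribed on-chip within common flanks and titrated with SNAP-549-labelled MS2 coat protein (about 1-3000 nM) in 100 mM Tris pH 7.5, 80 mM KCl, 4 mM MgCl2, without or with 200 uM FMN. Median apparent KD per design; activation ratio = KD,OFF / KD,ON.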

Data set [2] concerns MS2 coat protein. Nature of the data set: apparent KD of MS2 coat protein; designed switch direction (-1 OFF switch, 1 ON switch): 1; higher = weaker reporter binding. The settings on record: Eterna round: R98. The method, then:
as §1

“AAAAUAAAGGCAGGAUAUACAUGAAUAAAUAAAAUAAAAUAAAAUAAAACAUGAGGAUCACCCAUGUAGAAGGGCCAAAAUAAA [LRO021_Exclusion NG 2]”: the “apparent KD of MS2 coat protein” value came out at 178 nM in data set [1] (input ligand: FMN 200 uM) and 71.5 nM in data set [1] (input ligand: none).
Turning to “AAAAUAUAGGCAGGAUAUACAUGAAUAUAUAAUAUAAUAUAUAAUAUAACAUGAGGAUCACCCAUGUAGAAGGGCCAUAAUAAA [LRO028_Exclusion NG 2]”, the “apparent KD of MS2 coat protein” value in data set [1] (input ligand: FMN 200 uM) came to 72.7 nM; in data set [1] (input ligand: none) it was 43.7 nM.
On the same counts, the results for “ACAUGGAAGCGAGGAUAUGCGGCGGAAACGAACGCAGAAGGCGAAAAAAAAACUCGCAAAAACAUGAGGAUCACCCAUGUAAAA [AK-NGROCr2-ExNG1-4]” are 34.8 nM and 28.5 nM.
For the sequence “AUGACAGGCAGAGCGCAACGGCGAACAUGAGGAUCACCCAUGUAGGAUAUGCUACACAAAGUGUAGCAGAAGGACAUGCGACGC [Ex NG2 #85]”, the “apparent KD of MS2 coat protein” value was determined as 117 nM in data set [1] (input ligand: FMN 200 uM) and 25.7 nM in data set [1] (input ligand: none).
Consider “AUGCCGUGCAGAGCGCGACGGCGAACAUGAGGAUCACCCAUGUAGGAUAUACUACACAAAGUGUAGUAGAAGGACGUGCAACAA [Ex NG2 #97]”, for which the “apparent KD of MS2 coat protein” value in data set [1] (input ligand: FMN 200 uM) turned out to be 38.1 nM; in data set [1] (input ligand: none), 29.8 nM.
Regarding “CUGGUGAUGUAAGGAUAUGCUGAGGAAUACUCAGCAGAAGGUACAUGAGGAUCACCCAUGUAAAUGAAAGAUAAUAAACACCAG [Excusion NG 1/16-B1]”, the “apparent KD of MS2 coat protein” value amounted to 29.1 nM in data set [1] (input ligand: FMN 200 uM) and 14.5 nM in data set [1] (input ligand: none).
Take “GCGUAAUUGAUCCUAUUUACCAACAUGAGGAUCACCCAUGUGCAGGAUAUGCUAAAGAUAGAUAAGCAGAAGGGCAAAUACCGC [JR_ExcNG3_Sub003]”: the “apparent KD of MS2 coat protein” value in data set [1] (input ligand: FMN 200 uM) was 252 nM; in data set [1] (input ligand: none) it was 67 nM.
On the same counts, the results for “GGAUGACAAAGUCAUCCUUAACGAACAUGAGGAUCACCCAUGUAGGAUAUGCUACACAAAGUGUAGCAGAAGGACAUGUGCCUU [Mat - Exclusion NG 3 - JL Mod - D88]” are 294 nM and 32.9 nM.
As for “GGUUGUUACGCAGGAUAUUGCCAACAGGCAGUAGGAUAUCCGAAAGGAGAAGGAUUGCCAACAGGCGAGAAGGGCGGGUUAACC [pwkr exNG2 2xF7 2FMN.10.6]”, the results for the “apparent KD of MS2 coat protein” value in data set [1] (input ligand: FMN 200 uM) and in data set [1] (input ligand: none) were 50.6 nM and 33.3 nM, respectively.
Regarding “GUAGCAUACCGAGGAUAUUCAUACUGGAAACAGACAUGAGGAUCACCCAUGUGGCGAAAGCCUUGGGAGAAGGCGGAAUGCUAC [EliMod 9 - Jieux - Same State NG 2]”, the “apparent KD of MS2 coat protein” value in data set [2] (input ligand: FMN 200 uM) came to 42.4 nM; in data set [2] (input ligand: none), 545 nM.
“GUAUGACAAAGUCAUACCGCUUUGACAUGAGGAUCACCCAUGUAGGAUAUAUUAAUCAAAGAUUAAUAGAAGGACAUGUUUCUG [Ex NG2 #68]”: the “apparent KD of MS2 coat protein” value is 175 nM in data set [1] (input ligand: FMN 200 uM) and 94.6 nM in data set [1] (input ligand: none).
The corresponding values for “UAUAUAAUAAGAGCUGGAAAACUCACAUGAGGAUCACCCAUGUAGGAUAUCAGCACGAUAAGUGCUGAGAAGGACAACCAGCUC [Denovo 73]” are 17 nM and 15.2 nM.
Turning to “UCACUCACGUUAGGAUAUGGAUCGGAAAACGAUCCAGAAGGAACCUGCAAACACGAGGAUCACCCGUGUUCCAAUAACGAGUGA [SameSame 5 - Jieux - Same State NG 1]”, the “apparent KD of MS2 coat protein” value was found to be 24.7 nM in data set [2] (input ligand: FMN 200 uM) and 20.3 nM in data set [2] (input ligand: none).
Regarding “UCGAAGAAGCAAGGAUAUCAAUAUUAGAAAAGAUAAACAUGAGGAUCACCCAUGUAAAUAUGGAGUGAGAAGGUGCAAUAAUUU [JR_SSNG2_Sub098]”, the “apparent KD of MS2 coat protein” value amounted to 212 nM in data set [2] (input ligand: FMN 200 uM) and 557 nM in data set [2] (input ligand: none).
The corresponding values for “UCGGUUUUCGCAGGAUAUGGAGGAUACUCCCACAUGAGCAUCAGCCAUGUCUGCAUGGAGGAAGGCCAGAAGGGCGAGAACCGA [United States 2 - Jieux - Same State NG 2]” are 13.5 nM and 31.6 nM.
Regarding “UUAUAAAAUAUAGGAUAUGGAAACAUGAGGAUCACCCAUGUAUGAUAAGAUAAAUUAUGAUAUAGCCAGAAGGAUACAAUAUAA [LRO010_SS NG 2]”, the figures for the “apparent KD of MS2 coat protein” value in data set [2] (input ligand: FMN 200 uM) and in data set [2] (input ligand: none) were 35.4 nM and 32.9 nM, respectively.
Regarding “UUUACAUGAGGAUCACCCAUGUUUUGAAAGAUUGGUUUAGGUGAGGAUAUACAUGAUAAUGAAUUGUAGAAGGCACUGGGUACA [JR_SSNG3_Sub029]”, the “apparent KD of MS2 coat protein” value was determined as 29.6 nM in data set [2] (input ligand: FMN 200 uM) and 39.3 nM in data set [2] (input ligand: none).
With “UUUGGGAGCACAGGAUAUGGCACCUCGACGGCGCCAGAAGGGUGAUUCUGUUGGUGGCCACAUGAGGAUCACCCAUGUGCCUCC [Inerinusce]”, the “apparent KD of MS2 coat protein” value worked out at 44.7 nM in data set [2] (input ligand: FMN 200 uM) and 76 nM in data set [2] (input ligand: none).
